# Reference: patent publication JP2024517985A
# T1: CD300c抗原(11832-H08H、Sino Biological) (UniProt Q08708)
# T1 sequence (looked up): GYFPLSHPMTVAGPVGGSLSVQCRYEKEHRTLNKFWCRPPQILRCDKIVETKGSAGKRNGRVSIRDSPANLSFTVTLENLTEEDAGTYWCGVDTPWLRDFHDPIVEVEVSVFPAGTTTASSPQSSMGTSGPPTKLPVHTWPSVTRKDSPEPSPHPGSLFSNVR
# Molecular target: T1, CD300c抗原(11832-H08H、Sino Biological)
# Test: binding ELISA, CD300c antigen coated at 8 ug/mL, HRP anti-Fc IgG
row,EC50 [µg/mL],Binder
1,> 0.2,"抗-CD300cモノクローナル抗体 SK15 (antibody, from another filing, V domains shown) VH: RVQLLESGGGLVQPGGSLRLSCAASGFTFSSYAMHWVRQAPGKGLEWVSAINGSGGSTYYADSVKGRFTISRDNSKNTLYLQTNSLRAEDTAVYYCARGLQGFDYWGQGTLVTVSS VL: EIVLTQSPGTLSLSPGERATLSCQASQDITNYLNWYQQKPGQAPRLLIYDASSLETGIPDRFSGSGSGTDFTLTISRLEPEDFAVYYCQQSYSTPITFGQGTKVEIK"
2,> 0.2,"抗-CD300cモノクローナル抗体 SK16 (antibody, from another filing, V domains shown) VH: RVQLLESGGGLVQPGGSLRLSCAASGFTFSSYAMSWVRQAPGKGLEWVSAINGSGGSTLYADSVKGRFTISRDNSKNTLYLQMNSLRAEDTAVYYCARGVSGFDSWGQGTLVTVSS VL: EIVLTQSPGTLSLSPGERATLSCRISQSISSYLNWYQQKPGQAPRLLIYDASLRATGIPDRFSGSGSGTDFTLTISRLEPEDFAVYYCQQSYKTPITFGQGTKVEIK"
3,> 0.2,"抗-CD300cモノクローナル抗体 CK3 (antibody, from another filing, V domains shown) VH: RVQLLESGGGLVQPGGSLRLSCAASGFTFSSYAISWVRQAPGKGLEWVSATSGSGRATYYADSVKGRFTISRDNSKNTLYLQMNSLRAEDTAVYYCARDTWWEGYFDLWGQGTLVTVSS VL: EIVLTQSPGTLSLSPGERATLSCQASHISTHLNWYQQKPGQAPRLLIYGASSRATGIPDRFSGSGSGTDFTLTISRLEPEDFAVYYCQQYNTYPPTFGQGTKVEIK"
